Measured values as given in patent publication US20080181886A1, “Polypeptides That Bind Baff And/Or April” (Genentech, Inc., priority 2004, published 2008).

molecular target: Murine APRIL (mouse) (UniProt Q9D777); assay: shotgun scan, phage display
Sequence (Q9D777 105-241 limits assumed): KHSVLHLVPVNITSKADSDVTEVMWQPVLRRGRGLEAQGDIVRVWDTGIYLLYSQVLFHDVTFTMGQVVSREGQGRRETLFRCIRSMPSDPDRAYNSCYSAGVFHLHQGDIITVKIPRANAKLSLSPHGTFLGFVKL

Row | Binder | F (APRIL)
1 | SLSCRKEQGKFYDHLLRDCISCASICGQPPKQCAYFCENKLR (receptor) [TACI_d2 H96P] | 48
2 | SLSCRKEQGKFDDHLLRDCISCASICGQHPKQCAYFCENKLR (receptor) [TACI_d2 Y79D] | > 8.2

molecular target: human BAFF (human) (UniProt Q9Y275); assay: shotgun scan, phage display
Sequence (Q9Y275 82-285 limits assumed): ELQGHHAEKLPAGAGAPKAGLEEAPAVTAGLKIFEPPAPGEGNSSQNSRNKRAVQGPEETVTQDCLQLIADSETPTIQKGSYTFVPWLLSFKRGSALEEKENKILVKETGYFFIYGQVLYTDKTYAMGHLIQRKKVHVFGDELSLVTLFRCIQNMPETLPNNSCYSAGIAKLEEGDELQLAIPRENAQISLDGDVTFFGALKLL

Row | Binder | F (BAFF)
3 | SLSCRKEQGKFYDHLLRDCISCASICGPHPKQCAYFCENKLR (receptor) [TACI_d2 Q95P] | > 54
4 | SLSCRKEQGKFYDHLLGDCISCASICGQHPKQCAYFCENKLR (receptor) [TACI_d2 R84G] | 13
5 | SLSCRKEQGKFYDHLLRDCISCASICGQPPKQCAYFCENKLR (receptor) [TACI_d2 H96P] | 20
6 | SLSCRKEQGKFDDHLLRDCISCASICGQHPKQCAYFCENKLR (receptor) [TACI_d2 Y79D] | > 9.5
7 | SLSCRKEQGKFYDHLLPDCISCASICGQHPKQCAYFCENKLR (receptor) [TACI_d2 R84P] | > 52
8 | SLSCRKEQGKFSDHLLRDCISCASICGQHPKQCAYFCENKLR (receptor) [TACI_d2 Y79S] | > 36
9 | SLSCRKEQGKFYDHLPRDCISCASICGQHPKQCAYFCENKLR (receptor) [TACI_d2 L83P] | 15
10 | SLSCRKEQGKFYDHLLRDCISCASICGQDPKQCAYFCENKLR (receptor) [TACI_d2 H96D] | > 29

molecular target: Murine APRIL (mouse) (UniProt Q9D777); assay: NNS library, phage display

Row | Binder | F' APRIL
11 | SLSCRKEQGKFDDHLLRDCISCASICGQHPKQCAYFCENKLR (receptor) [TACI_d2 Y79D] | 0

molecular target: human BAFF (human) (UniProt Q9Y275); assay: NNS library, phage display

Row | Binder | F' BAFF
12 | SLSCRKEQGKFYDHLLGDCISCASICGQHPKQCAYFCENKLR (receptor) [TACI_d2 R84G] | 0
13 | SLSCRKEQGKFDDHLLRDCISCASICGQHPKQCAYFCENKLR (receptor) [TACI_d2 Y79D] | 0
14 | SLSCRKEQGKFYDHLLPDCISCASICGQHPKQCAYFCENKLR (receptor) [TACI_d2 R84P] | 0
15 | SLSCRKEQGKFSDHLLRDCISCASICGQHPKQCAYFCENKLR (receptor) [TACI_d2 Y79S] | 0
